Experimental data: the supplement of paper PMC9732359
± gives the uncertainty stated by the source.

Test: protein stability index of a GFP-peptide fusion (yeast GPS) (PSI 1-4); higher = more stable; sorted into four equal gates, so the index is relative within each strain
Summary of the method: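 Tiled 17-residue peptides from yeast proteins were fused downstream of GFP on a plasmid that also expresses Cherry, and the pooled library was carried in yeast. Mid-log cultures grown in leucine-free medium were sorted into four equal gates by GFP/Cherry fluorescence ratio. Plasmids from each gate were PCR-amplified and Illumina-sequenced, and reads were assigned to strains by barcodes. Each peptide's protein stability index is the sum, over gates, of the gate's read frequency multiplied by its gate number.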

Sequence | protein stability index (doa10∆) | protein stability index (pdr5∆) | protein stability index (san1∆) | protein stability index (ubr1∆)
HLKILASSNFPFLNETK [RPC82] | 2.52 ± 0.055 | 2.61 ± 0.064 | 2.51 ± 0.06 | 2.62 ± 0.045
MGPLYQNFAEFMTKLLE [IRR1] | 2.27 ± 0.11 | 1.82 ± 0.11 | 3.03 ± 0.13 | 2.04 ± 0.15
CQILDGELDVLQIESVT [PRP8] | 2.56 ± 0.05 | 2.78 ± 0.062 | 2.55 ± 0.065 | 2.86 ± 0.059
KDFVTMAIEIINDIRDD [YCG1] | 1.85 ± 0.12 | 1.7 ± 0.16 | 2.17 ± 0.2 | 2.42 ± 0.19
MKLVPSIPPATIETFNE [RPB5] | 2.41 ± 0.053 | 2.41 ± 0.06 | 2.11 ± 0.051 | 2.57 ± 0.049
KSLDKKIAKRRQVYKPV [POP3] | 3.25 ± 0.21 | 3.09 ± 0.15 | 2.54 ± 0.23 | 3.5 ± 0.2
MSDPSSINGGIVVAMTG [PUP3] | – | 2.39 ± 0.21 | – | –
DTLDPALLRPGRLDRKV [RPT4] | 3.02 ± 0.26 | – | – | –
LNHRNKNQHRAASWYGS [RMP1] | 2.86 ± 0.092 | 3.31 ± 0.07 | 3.17 ± 0.056 | 3.06 ± 0.044
LSSIEASLKIKNATDLQ [SMC3] | 1.84 ± 0.064 | 2.06 ± 0.091 | 2.56 ± 0.12 | 2.4 ± 0.077
PSKSQTNFKEEITDASL [YML103C/NUP188] | 2.93 ± 0.15 | 3.13 ± 0.11 | 3.02 ± 0.18 | 2.92 ± 0.18
FLNSNAVVVGTGNIKHE [COR1] | 1.18 ± 0.085 | 1.36 ± 0.15 | 1.06 ± 0.22 | 1.24 ± 0.12
IYAKYGAKGSTLIVVPF [FAS2] | 2.4 ± 0.072 | 2.72 ± 0.073 | 2.34 ± 0.11 | 2.13 ± 0.05
LEKLIFDMTNHYNDSQQ [SRB8] | 2.82 ± 0.053 | 2.23 ± 0.045 | 2.47 ± 0.065 | 2.51 ± 0.036
QRRCLHCGALNGVVKKA [RPO31] | 2.35 ± 0.13 | 2.54 ± 0.13 | 2.41 ± 0.12 | 2.59 ± 0.11
VDAITRCYQPFELFDNK [SNU114] | 3 ± 0.073 | 3.06 ± 0.068 | 2.96 ± 0.049 | 3 ± 0.068
QRKTVNSDDILSLHENY [POP1] | 2.55 ± 0.053 | 2.65 ± 0.069 | 2.54 ± 0.068 | 2.92 ± 0.039
EGRLLDNVQANDPAREK [SNF12] | 2.8 ± 0.11 | 3.21 ± 0.065 | 2.96 ± 0.05 | 3.18 ± 0.042
KIKDNKEKIKNNRQLPY [RPT5] | 3.23 ± 0.12 | 3.24 ± 0.16 | 3.18 ± 0.1 | 2.86 ± 0.1
TLENTLKAAFVAIGNTY [RPS2] | 1.86 ± 0.16 | 1.9 ± 0.11 | 1.72 ± 0.14 | 1.94 ± 0.091
SAEDQLYAITFRKGLGN [QCR2] | 3.06 ± 0.12 | 3.14 ± 0.16 | 2.96 ± 0.2 | 3.03 ± 0.17
VIIKGFKTYRNETIIDN [SMC3] | 2.58 ± 0.22 | 2.63 ± 0.27 | 2.94 ± 0.17 | –
DRSKLKKGVRVTLDITT [RPT4] | – | 2.87 ± 0.2 | 2.4 ± 0.089 | 2.57 ± 0.14
TAGKTSVKSARTSTRGR [SNF2] | 3.44 ± 0.058 | 3.37 ± 0.052 | 3.12 ± 0.042 | 3.206 ± 0.031
NTNNNNTNNNNNPANNT [SWI1] | 3.35 ± 0.044 | 3.354 ± 0.033 | 3.409 ± 0.027 | 3.3 ± 0.044
RRFYKNWYKSKKKAFTK [RPL3] | 2.98 ± 0.16 | 2.8 ± 0.11 | 1.6 ± 0.2 | 1.78 ± 0.08
NVVPYHRNTSDYYYEDA [SWI1] | 2.85 ± 0.085 | 3.13 ± 0.075 | 3.03 ± 0.08 | 3.08 ± 0.055

Sequence | protein stability index (doa10∆) | protein stability index (pdr5∆) | protein stability index (san1∆) | protein stability index (ubr1∆)
KSTDNSAIRQVFERFKT [IRR1] | 2.21 ± 0.046 | 2.7 ± 0.046 | 2.19 ± 0.062 | 2.8 ± 0.045
SIRAEAVAASSTKTGTP [POP1] | 3.48 ± 0.15 | 3.21 ± 0.1 | 3.08 ± 0.077 | 2.9 ± 0.069
VQKQTRAGQRTRFKAVV [RPS2] | 3.04 ± 0.12 | 3.35 ± 0.14 | 3.31 ± 0.15 | 3.23 ± 0.088
KSQNTALPSTHKVTQKK [SIR4] | 2.6 ± 0.061 | 2.9 ± 0.061 | 2.79 ± 0.071 | 3.01 ± 0.05
KVKNQGADVTNTTQDNG [YCS4] | 3.17 ± 0.086 | 3.19 ± 0.084 | 3.11 ± 0.049 | 3.2 ± 0.057
NTLEEFEHGRTPAEMSR [FAS2] | 2.8 ± 0.15 | 3.09 ± 0.16 | 3.19 ± 0.16 | 3.57 ± 0.15
EKACQVLKYMLLSKIML [RPN6] | 1.76 ± 0.049 | 1.49 ± 0.048 | 1.13 ± 0.1 | 1.41 ± 0.031
ATKEGVVLGVEKRATSP [PUP2] | 2.72 ± 0.14 | 3.14 ± 0.087 | 3.15 ± 0.083 | 3.19 ± 0.053
FGNIMDNLLEMSDHSLD [RRP6] | 2.42 ± 0.074 | 2.58 ± 0.065 | 1.89 ± 0.1 | 3.27 ± 0.05
MAPYLPGSRASSRFIKG [RPN2] | 2.44 ± 0.059 | 2.66 ± 0.064 | 2.45 ± 0.063 | 2.53 ± 0.044
AVGNLGNAIEVTEDGSI [RPL22B] | 1.16 ± 0.13 | 1.45 ± 0.098 | 1.24 ± 0.19 | 1.27 ± 0.05
QDIKKAKRVENFNSSAP [DSN1] | 3.31 ± 0.1 | 3.44 ± 0.085 | 3.02 ± 0.16 | 3.42 ± 0.06
EITDAYCFAKNDLFFNN [YMR129W/POM152] | 2.59 ± 0.059 | 2.56 ± 0.063 | 2.22 ± 0.071 | 2.61 ± 0.056
LPIESQFVSKLVDNLNA [BRR2] | 2.32 ± 0.052 | 2.34 ± 0.049 | 2.5 ± 0.072 | 2.4 ± 0.059
ATGKKSRGINKGHKFNN [RPL15A] | 2.5 ± 0.24 | 2.69 ± 0.13 | 2.34 ± 0.12 | 2.17 ± 0.13
GRPQRKMMSFQANPTEE [RPB5] | – | 3.2 ± 0.17 | 3.44 ± 0.094 | 3.53 ± 0.19
SLEGCVEMAWIMGFISY [FAS2] | 1.97 ± 0.084 | 1.86 ± 0.061 | 2.35 ± 0.086 | 2.27 ± 0.078
RLHYYPKDPSNVETYEQ [BRR2] | 3.02 ± 0.11 | 3.11 ± 0.23 | 3.01 ± 0.24 | –
FDGFLFGSRVMIAKEVK [FAS1] | 2.58 ± 0.15 | 1.56 ± 0.18 | – | 2.55 ± 0.074
RSEDPAGLGKTNELWAR [YGR119C/NUP57] | 2.82 ± 0.068 | 2.24 ± 0.077 | 3.25 ± 0.075 | 3.4 ± 0.088
NYNRIAKICALLFFNFS [NUT1] | 1.89 ± 0.048 | 1.8 ± 0.047 | 1.37 ± 0.082 | 1.61 ± 0.031
LMTHITTDDEEEPIKKL [RET1] | 3.42 ± 0.27 | 3.41 ± 0.28 | – | 3.49 ± 0.17
LATYGLTIDDLGVASFH [FAS2] | 2.97 ± 0.055 | 3.11 ± 0.053 | 2.92 ± 0.044 | 3.11 ± 0.036
GKRIAYVYRASKEVRGS [RPL33A] | 2.8 ± 0.063 | 2.57 ± 0.08 | 2.43 ± 0.064 | 2.73 ± 0.047
TAIDKNGNITYSEEPRE [FAS2] | 2.87 ± 0.069 | 3.29 ± 0.066 | 3.12 ± 0.076 | 3.15 ± 0.073
NGAVGKREGKTRLLNIV [ISW2] | 3.27 ± 0.12 | 2.95 ± 0.11 | 3.03 ± 0.051 | 2.97 ± 0.088
ESRSFSPIPFPPLTYKN [PRP8] | 3.04 ± 0.074 | 3 ± 0.08 | 2.6 ± 0.058 | 2.62 ± 0.047
